This passage reports protein stability index results from the supplement of paper PMC10567573.

B1: SEC22B (parent)
chain: AKQLFRKLNEQSPTRCTLEAGAMT
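Note: lentivirally expressed fusions sorted by FACS into six bins by GFP to DsRed ratio, PSI derived from sequencing read proportions per bin multiplied by bin number.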

Variants of B1 are the subject of this data set. In words: protein stability index of a GFP-peptide fusion (GPS, HEK-293T) (PSI 1-6); higher = more stable. The note with it: c terminus: a fixed tail appended.
Regarding AKQLFRKLNEQSTTRCTLEAGAMT [P13T], the protein stability index was 2.14.
Turning to AKQLFRKLNEQSNTRCTLEAGAMT [P13N], the protein stability index came to 1.86.
With AKQLFRKLNEQSRTRCTLEAGAMT [P13R], the protein stability index worked out at 2.73.
As for AKQLFRKLNEQSYTRCTLEAGAMT [P13Y], the protein stability index worked out at 1.
As to AKQLFRKLNEQSHTRCTLEAGAMT [P13H], the protein stability index turned out to be 1.7.
Consider AKQLFRKLNEQSVTRCTLEAGAMT [P13V], for which the protein stability index turned out to be 2.46.
With AKQLFRKLNEQSLTRCTLEAGAMT [P13L], the protein stability index is 2.08.
For AKQLFRKLNEQSSTRCTLEAGAMT [P13S], the protein stability index came to 1.58.
Regarding AKQLFRKLNEQSATRCTLEAGAMT [P13A], the protein stability index amounted to 2.48.
As to AKQLFRKLNEQSITRCTLEAGAMT [P13I], the protein stability index was found to be 1.61.
Consider AKQLFRKLNEQSMTRCTLEAGAMT [P13M], for which the protein stability index stood at 1.82.
For AKQLFRKLNEQSDTRCTLEAGAMT [P13D], the protein stability index came out at 3.06.
For AKQLFRKLNEQSGTRCTLEAGAMT [P13G], the protein stability index is 1.96.
Next, AKQLFRKLNEQSQTRCTLEAGAMT [P13Q]: 1.98; AKQLFRKLNEQSFTRCTLEAGAMT [P13F]: 1.77.
For AKQLFRKLNEQSETRCTLEAGAMT [P13E], the protein stability index is 2.81.
Regarding AKQLFRKLNEQSKTRCTLEAGAMT [P13K], the protein stability index came to 1.88.
Turning to AKQLFRKLNEQSCTRCTLEAGAMT [P13C], the protein stability index came out at 1.53.
On to AKQLFRKLSEQSPTRCTLEAGAMT [N9S], for which the protein stability index amounted to 1.8.
Take AKQLFRKLGEQSPTRCTLEAGAMT [N9G]: the protein stability index stood at 2.47.
Turning to AKQLFRKLVEQSPTRCTLEAGAMT [N9V], the protein stability index turned out to be 1.39.
Next, AKQLFRKLMEQSPTRCTLEAGAMT [N9M]: 1.85; AKQLFRKLYEQSPTRCTLEAGAMT [N9Y]: 2.6.
As to AKQLFRKLQEQSPTRCTLEAGAMT [N9Q], the protein stability index turned out to be 2.5.
Consider AKQLFRKLEEQSPTRCTLEAGAMT [N9E], for which the protein stability index stood at 3.56.
Regarding AKQLFRKLFEQSPTRCTLEAGAMT [N9F], the protein stability index was determined as 2.57.
For the variant AKQLFRKLDEQSPTRCTLEAGAMT [N9D], the protein stability index was 2.98.
AKQLFRKLLEQSPTRCTLEAGAMT [N9L]: the protein stability index worked out at 1.35.
With AKQLFRKLWEQSPTRCTLEAGAMT [N9W], the protein stability index was determined as 3.44.
In the case of AKQLFRKLHEQSPTRCTLEAGAMT [N9H] it was 1.84.
In the case of AKQLFRKLIEQSPTRCTLEAGAMT [N9I] it was 2.13; in that of AKQLFRKLTEQSPTRCTLEAGAMT [N9T], 1.97.
Regarding AKQLFRKLCEQSPTRCTLEAGAMT [N9C], the protein stability index came out at 1.92.
Take AKQLFRKLAEQSPTRCTLEAGAMT [N9A]: the protein stability index turned out to be 1.95.
Regarding AKQLFRKLREQSPTRCTLEAGAMT [N9R], the protein stability index turned out to be 2.88.
Consider AKQLFRKLPEQSPTRCTLEAGAMT [N9P], for which the protein stability index turned out to be 2.59.
As to AKQLFRKLKEQSPTRCTLEAGAMT [N9K], the protein stability index was found to be 2.58.
As for AKQLFRGLNEQSPTRCTLEAGAMT [K7G], the protein stability index amounted to 2.24.
Consider AKQLFRILNEQSPTRCTLEAGAMT [K7I], for which the protein stability index was determined as 1.81.
Regarding AKQLFRFLNEQSPTRCTLEAGAMT [K7F], the protein stability index was 1.67.
Regarding AKQLFRPLNEQSPTRCTLEAGAMT [K7P], the protein stability index came out at 3.33.
Next, AKQLFRCLNEQSPTRCTLEAGAMT [K7C]: 2.82.
As for AKQLFRNLNEQSPTRCTLEAGAMT [K7N], the protein stability index came to 2.47.
In the case of AKQLFRLLNEQSPTRCTLEAGAMT [K7L], the protein stability index amounted to 1.69.
In the case of AKQLFRDLNEQSPTRCTLEAGAMT [K7D], the protein stability index came to 2.7.
In the case of AKQLFRRLNEQSPTRCTLEAGAMT [K7R], the protein stability index turned out to be 2.
Turning to AKQLFRELNEQSPTRCTLEAGAMT [K7E], the protein stability index was 2.89.
With AKQLFRTLNEQSPTRCTLEAGAMT [K7T], the protein stability index came to 2.54.
For AKQLFRVLNEQSPTRCTLEAGAMT [K7V], the protein stability index amounted to 2.47.
As for AKQLFRALNEQSPTRCTLEAGAMT [K7A], the protein stability index worked out at 1.97.
Turning to AKQLFRSLNEQSPTRCTLEAGAMT [K7S], the protein stability index amounted to 2.31.
Turning to AKQLFRYLNEQSPTRCTLEAGAMT [K7Y], the protein stability index came out at 1.52.
AKQLFRHLNEQSPTRCTLEAGAMT [K7H]: the protein stability index stood at 2.64.
Take AKQLFRMLNEQSPTRCTLEAGAMT [K7M]: the protein stability index is 1.83.
Take AKQLFRQLNEQSPTRCTLEAGAMT [K7Q]: the protein stability index was found to be 2.25.
Next, AKQLFRKLNEQSPVRCTLEAGAMT [T14V]: 2.06; AKQLFRKLNEQSPARCTLEAGAMT [T14A]: 1.68; AKQLFRKLNEQSPQRCTLEAGAMT [T14Q]: 1.86.
In the case of AKQLFRKLNEQSPFRCTLEAGAMT [T14F] it was 1.63; in that of AKQLFRKLNEQSPDRCTLEAGAMT [T14D], 3.27.
With AKQLFRKLNEQSPHRCTLEAGAMT [T14H], the protein stability index came to 1.81.
In the case of AKQLFRKLNEQSPMRCTLEAGAMT [T14M] it was 1.79; in that of AKQLFRKLNEQSPRRCTLEAGAMT [T14R], 2.38.
Turning to AKQLFRKLNEQSPYRCTLEAGAMT [T14Y], the protein stability index stood at 1.99.
For the variant AKQLFRKLNEQSPPRCTLEAGAMT [T14P], the protein stability index came out at 2.35.
For the variant AKQLFRKLNEQSPKRCTLEAGAMT [T14K], the protein stability index is 2.41.
On to AKQLFRKLNEQSPGRCTLEAGAMT [T14G], for which the protein stability index came out at 1.74.
AKQLFRKLNEQSPIRCTLEAGAMT [T14I]: the protein stability index was determined as 2.55.
For AKQLFRKLNEQSPNRCTLEAGAMT [T14N], the protein stability index is 1.98.
Regarding AKQLFRKLNEQSPCRCTLEAGAMT [T14C], the protein stability index is 3.02.
Take AKQLFRKLNEQSPSRCTLEAGAMT [T14S]: the protein stability index came to 1.89.
For the variant AKQLFRKLNEQSPLRCTLEAGAMT [T14L], the protein stability index was determined as 1.94.
On to AKQLFRKLNEQSPERCTLEAGAMT [T14E], for which the protein stability index is 3.53.
In the case of AKQLFRKLNEQSPWRCTLEAGAMT [T14W], the protein stability index amounted to 2.01.
Turning to AKQLFRKLNEQSPTRKTLEAGAMT [C16K], the protein stability index worked out at 2.95.
Next, AKQLFRKLNEQSPTRFTLEAGAMT [C16F]: 2.15.
In the case of AKQLFRKLNEQSPTRETLEAGAMT [C16E] it was 3.85; in that of AKQLFRKLNEQSPTRDTLEAGAMT [C16D], 3.93.
For AKQLFRKLNEQSPTRHTLEAGAMT [C16H], the protein stability index amounted to 3.47.
Regarding AKQLFRKLNEQSPTRGTLEAGAMT [C16G], the protein stability index stood at 3.93.
Take AKQLFRKLNEQSPTRATLEAGAMT [C16A]: the protein stability index was determined as 3.07.
Next, AKQLFRKLNEQSPTRITLEAGAMT [C16I]: 3.12; AKQLFRKLNEQSPTSCTLEAGAMT [R15S]: 2.44.
Next, AKQLFRKLNEQSPTNCTLEAGAMT [R15N]: 3.19.
As for AKQLFRKLNEQSPTMCTLEAGAMT [R15M], the protein stability index turned out to be 2.71.
For AKQLFRKLNEQSPTKCTLEAGAMT [R15K], the protein stability index came out at 3.2.
Next, AKQLFRKLNEQSPTFCTLEAGAMT [R15F]: 2.41.
As for AKQLFRKLNEQSPTCCTLEAGAMT [R15C], the protein stability index was 2.8.
Regarding AKQLFRKLNEQSPTYCTLEAGAMT [R15Y], the protein stability index worked out at 2.82.
As for AKQLFRKLNEQSPTECTLEAGAMT [R15E], the protein stability index was found to be 2.81.
As for AKQLFRKLNEQSPTDCTLEAGAMT [R15D], the protein stability index stood at 4.3.
In the case of AKQLFRKLNEQSPTVCTLEAGAMT [R15V], the protein stability index stood at 3.01.
Next, AKQLFRKLNEQSPTQCTLEAGAMT [R15Q]: 3.55; AKQLFRKLNEQSPTGCTLEAGAMT [R15G]: 3.15.
